Assay results taken from patent US12077763B2, “RNA-based control of powdery mildew” (Greenlight Biosciences, Inc., priority 2021, dated 2024).

B1: GS3625 (nucleic acid)
sense: GUUUGCCUUUCCAAAUAUCCAUCAUGCAGCUUUGUAACGUACCUCUCGUCCUGUUUGGUCUCCUCUGCUUUGGACUAGUUUCAACUGCUCCAGCACCAAACUCACCUUGGCAUCUACGAAGCCGACAGGAAGGUGGUGGCUACUAUGGCCAACCAUCGAAUGGUGAUGGAAGUGUGUAUCCACCUUCAUCUGGUACAGGUGGCUUUCUAUCGCCAACUGCUACGAGCGGUUAUCCGUCUGCAACUGGAACUGGCGGCUAUUCAUCUCCAUCGGGCACCGGUGGCUACCCGUCUGCAACAGGUACAGGUGGUUACGCAUCGCCAACAGGGACCAGUUACCCUACACCUACUGGAGGUUACUCUGAAGAGCCCUACCACUAUAAAGGUGUCAAGCUAGGUC
antisense: GACCUAGCUUGACACCUUUAUAGUGGUAGGGCUCUUCAGAGUAACCUCCAGUAGGUGUAGGGUAACUGGUCCCUGUUGGCGAUGCGUAACCACCUGUACCUGUUGCAGACGGGUAGCCACCGGUGCCCGAUGGAGAUGAAUAGCCGCCAGUUCCAGUUGCAGACGGAUAACCGCUCGUAGCAGUUGGCGAUAGAAAGCCACCUGUACCAGAUGAAGGUGGAUACACACUUCCAUCACCAUUCGAUGGUUGGCCAUAGUAGCCACCACCUUCCUGUCGGCUUCGUAGAUGCCAAGGUGAGUUUGGUGCUGGAGCAGUUGAAACUAGUCCAAAGCAGAGGAGACCAAACAGGACGAGAGGUACGUUACAAAGCUGCAUGAUGGAUAUUUGGAAAGGCAAAC
B2: GS3627 (nucleic acid)
sense: CUGUUUGGUCUCCUCUGCUUUGGACUAGUUUCAACUGCUCCAGCACCAAACUCACCUUGGCAUCUACGAAGCCGACAGGAAGGUGGUGGCUACUAUGGCCAACCAUCGAAUGGUGAUGGAAGUGUGUAUCCACCUUCAUCUGGUACAGGUGGCUUUCUAUCGCCAACUGCUACGAGCGGUUAUCCGUCUGCAACUGGAACUGGCGGCUAUUCAUCUCCAUCGGGCACCGGUGGCUACCCGUCUGCAACAGGUACAGGUGGUUACGCAUCGCCAACAGGGACCAGUUACCCUACACCUAC
antisense: GUAGGUGUAGGGUAACUGGUCCCUGUUGGCGAUGCGUAACCACCUGUACCUGUUGCAGACGGGUAGCCACCGGUGCCCGAUGGAGAUGAAUAGCCGCCAGUUCCAGUUGCAGACGGAUAACCGCUCGUAGCAGUUGGCGAUAGAAAGCCACCUGUACCAGAUGAAGGUGGAUACACACUUCCAUCACCAUUCGAUGGUUGGCCAUAGUAGCCACCACCUUCCUGUCGGCUUCGUAGAUGCCAAGGUGAGUUUGGUGCUGGAGCAGUUGAAACUAGUCCAAAGCAGAGGAGACCAAACAG
B3: GS3626 (nucleic acid)
sense: GCAGCUUUGUAACGUACCUCUCGUCCUGUUUGGUCUCCUCUGCUUUGGACUAGUUUCAACUGCUCCAGCACCAAACUCACCUUGGCAUCUACGAAGCCGACAGGAAGGUGGUGGCUACUAUGGCCAACCAUCGAAUGGUGAUGGAAGUGUGUAUCCACCUUCAUCUGGUACAGGUGGCUUUCUAUCGCCAACUGCUACGAGCGGUUAUCCGUCUGCAACUGGAACUGGCGGCUAUUCAUCUCCAUCGGGCACCGGUGGCUACCCGUCUGCAACAGGUACAGGUGGUUACGCAUCGCCAACAGGGACCAGUUACCCUACACCUACUGGAGGUUACUCUGAAGAGCCCUAC
antisense: GUAGGGCUCUUCAGAGUAACCUCCAGUAGGUGUAGGGUAACUGGUCCCUGUUGGCGAUGCGUAACCACCUGUACCUGUUGCAGACGGGUAGCCACCGGUGCCCGAUGGAGAUGAAUAGCCGCCAGUUCCAGUUGCAGACGGAUAACCGCUCGUAGCAGUUGGCGAUAGAAAGCCACCUGUACCAGAUGAAGGUGGAUACACACUUCCAUCACCAUUCGAUGGUUGGCCAUAGUAGCCACCACCUUCCUGUCGGCUUCGUAGAUGCCAAGGUGAGUUUGGUGCUGGAGCAGUUGAAACUAGUCCAAAGCAGAGGAGACCAAACAGGACGAGAGGUACGUUACAAAGCUGC
B4: GS3628 (nucleic acid)
sense: UAGUUUCAACUGCUCCAGCACCAAACUCACCUUGGCAUCUACGAAGCCGACAGGAAGGUGGUGGCUACUAUGGCCAACCAUCGAAUGGUGAUGGAAGUGUGUAUCCACCUUCAUCUGGUACAGGUGGCUUUCUAUCGCCAACUGCUACGAGCGGUUAUCCGUCUGCAACUGGAACUGGCGGCUAUUCAUCUCCAUCGGGCACCGGUGGCUACCCGUCUGCAACAGGUACAGGUGGUUACGCAUCGCCAA
antisense: UUGGCGAUGCGUAACCACCUGUACCUGUUGCAGACGGGUAGCCACCGGUGCCCGAUGGAGAUGAAUAGCCGCCAGUUCCAGUUGCAGACGGAUAACCGCUCGUAGCAGUUGGCGAUAGAAAGCCACCUGUACCAGAUGAAGGUGGAUACACACUUCCAUCACCAUUCGAUGGUUGGCCAUAGUAGCCACCACCUUCCUGUCGGCUUCGUAGAUGCCAAGGUGAGUUUGGUGCUGGAGCAGUUGAAACUA
B5: GS3672 (nucleic acid)
sense: UUCCUGGACAACCAGUAAAGAAAAAGUUGGGACCAAAUCAAACACAAGAAAUGAUAAAGUUUGCAUGUCGAACACCUGCCCAAAAUGCUACCUCAGUUGUUCAAGAUGGAAGACAUGUUUUGAGCCUGAACUCUAGCAACCCUGUUCUAUCUGAAUUUGGCCUUCAAGUAGGUCAGUCUUUGAUAUCAGUAAAUGCUCGAGUACUACAACCACCGUCUGUGAGAUAUGGAGGAUCUGGAAGUCUAUCACCGAGAAAUGGUAGUUGGAAUAUGAUUAACGUGAGAUUUCAUACACCCGCCAAAAUCGGACCAUGGACUUGUAUUAUGUUUCCCACCCAAGGAAGAAAUGACAUUGAUGUUGGUAAUAUGAGAUCACAUGUCACUGCUUUCCAAGCACA
antisense: UGUGCUUGGAAAGCAGUGACAUGUGAUCUCAUAUUACCAACAUCAAUGUCAUUUCUUCCUUGGGUGGGAAACAUAAUACAAGUCCAUGGUCCGAUUUUGGCGGGUGUAUGAAAUCUCACGUUAAUCAUAUUCCAACUACCAUUUCUCGGUGAUAGACUUCCAGAUCCUCCAUAUCUCACAGACGGUGGUUGUAGUACUCGAGCAUUUACUGAUAUCAAAGACUGACCUACUUGAAGGCCAAAUUCAGAUAGAACAGGGUUGCUAGAGUUCAGGCUCAAAACAUGUCUUCCAUCUUGAACAACUGAGGUAGCAUUUUGGGCAGGUGUUCGACAUGCAAACUUUAUCAUUUCUUGUGUUUGAUUUGGUCCCAACUUUUUCUUUACUGGUUGUCCAGGAA
B6: GS3623 (nucleic acid)
sense: AGUUUCUUACGUUGUAGCGCCGAAGCUUCUCUAAGUUUAAUCUCUGAUGGAGAUAAAACGUUAUAUAUAGGCGUACCAACAGCAAUUGUCCCCUCUUUAAGUAGAUAUAACUUUCGCUUAUCUUUGUCUCGGUCAGUGCGGAAGUUUGUCCCAGCUUCUGUAAGUUUUACAGCUUUUUCUCGAUUAACUGCUCUUGACACUUGAAGUACGCGACCUUCUAUUGUGUAUAAGCCAUUCUUAUCAGCAGUUUCAUCCUCUAAAAUAGAGUUUUUAGCUUUAACAGCGUUUGCACCACUUUUGAAGGUACGAGGUGCACCAUGGUAACAAGAGUCCGCAUCUUCUUGUCUAUA
antisense: UAUAGACAAGAAGAUGCGGACUCUUGUUACCAUGGUGCACCUCGUACCUUCAAAAGUGGUGCAAACGCUGUUAAAGCUAAAAACUCUAUUUUAGAGGAUGAAACUGCUGAUAAGAAUGGCUUAUACACAAUAGAAGGUCGCGUACUUCAAGUGUCAAGAGCAGUUAAUCGAGAAAAAGCUGUAAAACUUACAGAAGCUGGGACAAACUUCCGCACUGACCGAGACAAAGAUAAGCGAAAGUUAUAUCUACUUAAAGAGGGGACAAUUGCUGUUGGUACGCCUAUAUAUAACGUUUUAUCUCCAUCAGAGAUUAAACUUAGAGAAGCUUCGGCGCUACAACGUAAGAAACU

The molecules below were run on E. necator (assay: Leaf disc assay, dry inoculum (settling tower), decrease in disease severity / hyphal growth (Example 2)). Conditions: decrease in disease severity (hyphal growth) relative to untreated control; time point 1 (untreated control hyphal growth ≥50%); value ± SE.

Molecule	% decrease =/− SE TP1 [%]
B1	1 ± 2
B2	30 ± 3
B3	3 ± 7
B4	12 ± 2
B5	34 ± 4
B6	20 ± 3

Same assay, conditions: decrease in disease severity (hyphal growth) relative to untreated control; time point 2; value ± SE

Molecule	% decrease =/− SE TP2 [%]
B1	0 ± 3
B2	29 ± 6
B3	26 ± 7
B4	7 ± 5
B5	26 ± 7
